Results taken from patent US20250171549A1 (Amgen, published 2025).
Substitutions are numbered along the chain they refer to. Numbers in names are those of the source. Where no end group is shown, it is not given here.

Columns and labels:
[1] = target: T1, huCCR8 (1-25)[C25S]-Nb (human, not fully specified; biotinylated for the Fab assay, non-biotinylated for the mAb assay ; biotinylated when captured on streptavidin sensors (Fab assay); non-biotinylated in the mAb assay); experiment: BLI (Octet), biotinylated peptide-Nb on streptavidin sensor, Fab in solution
T1 construct: Expressed in human cells; also called CCR8 peptide-Nb fusion; not shown: nanobody (Nb) fusion partner, any linker or tag to it, and the biotin site
T1 peptide: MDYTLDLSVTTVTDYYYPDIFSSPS

[2] = target: T2, huCCR8 (1-12)-Nb (human, not fully specified (C-terminus); also: fused to nanobody, biotinylated in Fab assay); experiment: as above
T2 construct: Expressed in human cells; also called CCR8 peptide-Nb fusion; not shown: nanobody (Nb) fusion partner, any linker or tag to it, and the biotin site
T2 peptide: MDYTLDLSVTTV
Method: (§1) Binding affinities (KD equilibrium dissociation constant) and rate constants (kₐ association rate constant, kd dissociation rate constant) of an Antibody 1 Fab and CCR8-binding monoclonal antibodies (mAbs) of the present invention to a CCR8 1-12 epitope (SEQ ID NO: 82)-nanobody (Nb) fusion protein were measured using an OCTET® Biolayer Interferometry system (Sartorius AG, Göttingen, Germany). The CCR8-nanobody fusion proteins were expressed in human cells. For Fab binding, biotinylated CCR8 peptide-Nb fusions were captured on streptavidin SAX biosensors to loading levels between 2 and 4 nm and then incubated with a dilution series of the soluble Fab (top 100 nM, 6-point, 1:3 serial dilution) for 300 seconds followed by 500 seconds in buffer for dissociation. For mAb binding, mAbs were captured on an anti-huIgG Fc capture biosensor to 1 to 2 nm loading level and then incubated with a dilution series of non-biotinylated CCR8 peptide-Nb fusions (top 100 nM, 6-point, 1:3 serial dilution) for 300 seconds followed by 500 seconds in buffer for dissociation.
(§2) The OCTET® system acquires data over time (seconds) using a mechanism called Biolayer Interferometry; as proteins bind to biosensor tips, a sensitive binding signal in nm is measured by the instrument. All fiber optic tips were used once and then discarded, i.e., no regeneration. OCTET® buffer baselines, dissociation steps, and protein dilutions were made with OCTET® buffer (10 mM TRIS pH 7.5, 150 mM NaCl, 1 mM CaCl₂), 0.13% (v/v) Triton X-100 and 0.10 mg/mL BSA).
(§3) Raw data was processed with GeneData Screener v18 SPR package which uses the same data processing as the OCTET® instrument Data Analysis software (subtract average of two reference wells per column; Align Y-axis to baseline; Interstep correction align to dissociation; and Savitzky-Golay filtering). Each Fab or mAb interaction was grouped into its own sensorgram and globally fit with a 1:1 binding model to determine the association rate constant (kₐ; units M⁻¹ sec⁻¹) and the dissociation rate constant (kd; units sec⁻¹).

[3] = target: T3, human CCR8 (human, UniProt P51685 1-355); experiment: cell-based or functional assay
[4] = target: T3, human CCR8; experiment: cell-based or functional assay; remark: listed apart in the source
[5] = target: T2, huCCR8 (1-12)-Nb; experiment: BLI (Octet), mAb on anti-huIgG Fc sensor, peptide-Nb in solution
Method: as §1, §2, §3

[6] = target: T3, human CCR8; experiment: cell-based or functional assay; remark: listed apart in the source
[7] = target: T1, huCCR8 (1-25)[C25S]-Nb; experiment: BLI (Octet), mAb on anti-huIgG Fc sensor, peptide-Nb in solution
[8] = target: T3, human CCR8; experiment: cell-based or functional assay; remark: listed apart in the source

T3 sequence (P51685 whole entry): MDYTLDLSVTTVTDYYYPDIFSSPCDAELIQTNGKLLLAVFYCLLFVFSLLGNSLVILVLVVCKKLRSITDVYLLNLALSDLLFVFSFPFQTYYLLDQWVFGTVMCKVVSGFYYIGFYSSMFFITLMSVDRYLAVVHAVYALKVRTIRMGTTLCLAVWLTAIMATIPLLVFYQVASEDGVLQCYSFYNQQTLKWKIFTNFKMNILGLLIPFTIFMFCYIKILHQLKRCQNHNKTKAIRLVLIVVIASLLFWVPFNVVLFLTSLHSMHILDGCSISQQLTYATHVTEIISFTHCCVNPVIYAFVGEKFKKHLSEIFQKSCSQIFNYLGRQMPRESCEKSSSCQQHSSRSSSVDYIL

B1: Fab (HCVR SEQ ID NO: 13; LCVR SEQ ID NO: 14) (Fab, V domains shown)
VH: EVQLVESGGGLVKPGGSLRLSCAASGFTFSNARMGWVRQAPGKGLEWVGRIKSKTEGGTRDYAAPVKGRFTISRDDSKNTLYLQMNSLKTEDTAVYYCTSYSGVWGQGTMVTVSS
VL: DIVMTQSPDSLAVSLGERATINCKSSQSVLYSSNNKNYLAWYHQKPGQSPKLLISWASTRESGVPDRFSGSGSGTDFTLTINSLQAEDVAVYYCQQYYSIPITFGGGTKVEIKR
notes: also called Antibody 1 Fab
Kd [1]: 17.4 nM | koff [1]: 0.0106 s⁻¹ | kon [1]: 606000 M⁻¹ s⁻¹ | Kd [2]: 22.6 nM | koff [2]: 0.0132 s⁻¹ | kon [2]: 584000 M⁻¹ s⁻¹

B2: Antibody 3.0 IgG1 (antibody, V domains shown)
VH: EVQLVESGGGLVKPGGSLRLSCAASGFIFSNAWMSWVRQAPGKGLEWVARIKRRTDGGTTDYAAPVKDRFTISRDDSKNTLFLQMNSLKTEDTAVYYCTTVTMVRGVIADYWGQGTLVTVSS
VL: EIVLTQSPGTLSLSPGERATLSCRASQSVSSGSLAWYQQKLGQAPRLLIYGASSRATGIPDRFSGSGSGTDFTLTISSLEPEDFAVYYCQQYGSSRTFGQGTKVELKR
ADCC, Percent Non-Viable cells (EC50 pM), Donor 1 [3]: < 0.256 pM | ADCC, Percent Non-Viable cells (EC50 pM), Donor 2 [3]: 15.5 pM | Percent Inhibition (IC50 nM) of CCL1-dependent chemotaxis of HUT78 cells [4]: 3.7 nM

B3: Antibody 4.0 IgG1 (antibody, V domains shown)
VH: B2 VH with A49G, R54K, D68G, F82Y, Q84L, T90I, T100V, M103L, V107I, A109F
VL: B2 VL with R18S, A25V, G32S, S33Q, L41P, S78R, S94N, L106I
ADCC, Percent Non-Viable cells (EC50 pM), Donor 1 [3]: < 0.256 pM | ADCC, Percent Non-Viable cells (EC50 pM), Donor 2 [3]: 218 pM | Percent Inhibition (IC50 nM) of CCL1-dependent chemotaxis of HUT78 cells [4]: 8.4 nM

B4: huCCR8_44379 (VH: D61S, VL: N67Q_M99G_W109F_S111A)_huIgG1z (mAb) (antibody, V domains shown)
VH: QVQLVESGGGVVQPGRSLRLSCAASGFTFSNYGFHWVRQTPGKGLEWVAVISYSGSNRYYADSVKGRFTISRDNSKNTLYLQMNSLRGEDTALYYCARVYYGSGTYYKNRYYYGMDVWGQGTTVTVSS
VL: SYELTQPPSVSVALGQTARITCGGHNIGSKGVHWYQQKPGQAPVLVIYRQSNRPSGIPERFSGSNSGNTATLTISGTQAGDEADYYCQAFDAGTVVFGGGTQLTVLG
notes: Engineered from scFv MPK20299-A4; afucosylated IgG1, HC without C-terminal lysine
Kd [5]: 8.1 nM | koff [5]: 0.00107 s⁻¹ | kon [5]: 132000 M⁻¹ s⁻¹ | ADCC, Percent Non-Viable cells (EC50 pM), Donor 7 [6]: 0.28 pM | Kd [7]: 7.2 nM | koff [7]: 0.000798 s⁻¹ | kon [7]: 110000 M⁻¹ s⁻¹

B5: huCCR8_44379 (VH: D72S, VL: N67A_S68A_M99G_W109F_S111A)_huIgG1z (mAb) (antibody, V domains shown)
VH: B4 VH with S54D, D62S
VL: B4 VL with Q50A, S51A
notes: as for B4
Kd [5]: 9 nM | koff [5]: 0.0011 s⁻¹ | kon [5]: 122000 M⁻¹ s⁻¹ | ADCC, Percent Non-Viable cells (EC50 pM), Donor 7 [6]: 0.48 pM | Kd [7]: 9.8 nM | koff [7]: 0.000975 s⁻¹ | kon [7]: 99300 M⁻¹ s⁻¹

B6: huCCR8_44379 (VH: D61A_D72A, VL: N67Q_M99E_W109F_S111A)_huIgG1z (mAb) (antibody, V domains shown)
VH: B4 VH with S54A, D62A
VL: B4 VL with G80E
notes: as for B4
Kd [5]: 9.5 nM | koff [5]: 0.00134 s⁻¹ | kon [5]: 142000 M⁻¹ s⁻¹ | ADCC, Percent Non-Viable cells (EC50 pM), Donor 7 [6]: 0.52 pM | Kd [7]: 7.8 nM | koff [7]: 0.00114 s⁻¹ | kon [7]: 146000 M⁻¹ s⁻¹

B7: Antibody 2.1 IgG1 (LC: F2I_P51S_H53Q_L103V_N148K, HC: K87N_S94N_V98A)(LC: Y25A_S26A, HC: A71I_D72R) (antibody, V domains shown)
VH: QVQLVESGGGVVQPGRSLRLSCAASGFTFSNYGMHWVRQAPGKGLEWVAVISYDGSNKFYIRSVKGRFTISRDNSKNTLYLQMNSLRAEDTAVYYCARAGGIGRFDYWGQGTLVTVSS
VL: DIVMTQTPLSLSVTPGQPASISCKAAQSLLHSDGKTYLFWYLQKPGQSPQLLIYEVSNRFSGVPDRFSGSGSGTDFTLKISRVEAEDVGVYYCMQTLKLPLTFGGGTKVEIKR
ADCC, Percent Non-Viable cells (EC50 pM), Donor 1 [3]: < 0.256 pM | ADCC, Percent Non-Viable cells (EC50 pM), Donor 2 [3]: 13.3 pM | ADCC, Percent Non-Viable cells (EC50 pM), Donor 3 [3]: 1 pM

B8: Antibody 5.1 IgG1 (VH: F134T, VL: S34R_S57Y_F103V)_huIgG1z mAb (antibody, V domains shown)
VH: QVQLVESGGGVVQPGRSLRLSCAASGFTFSSYGMHWVRQAPGKGLEWVAVISYDGSNKYYADSVKGRFTISRDNSKNTLYLQMNSLRAEDTAVYYCARGRYFDWTLFDYWGQGTLVTVSS
VL: B7 VL with I2T, A25S, A26S, S32R, S48P, T96S, K98R
ADCC, Percent Non-Viable cells (EC50 pM), Donor 4 [8]: 3.68 pM | ADCC, Percent Non-Viable cells (EC50 pM), Donor 5 [8]: 0.865 pM | ADCC, Percent Non-Viable cells (EC50 pM), Donor 6 [8]: 4.89 pM

B9: Antibody 5.5 IgG1 (VH: G40P_M41V, VL: S57Y_E58L_V67T_F103V)_huIgG1z mAb (antibody, V domains shown)
VH: B8 VH with G33P, M34V, T105F
VL: B7 VL with I2T, A25S, A26S, S48P, E55L, V56T, T96S, K98R
ADCC, Percent Non-Viable cells (EC50 pM), Donor 4 [8]: 4.89 pM | ADCC, Percent Non-Viable cells (EC50 pM), Donor 5 [8]: 0.837 pM | ADCC, Percent Non-Viable cells (EC50 pM), Donor 6 [8]: 3.77 pM

B10: Antibody 5.0 IgG1 (antibody, V domains shown)
VH: B8 VH with T105F
VL: B7 VL with I2T, A25S, A26S, S48P, Y54S, V90F, T96S, K98R
ADCC, Percent Non-Viable cells (EC50 pM), Donor 1 [3]: < 0.256 pM | ADCC, Percent Non-Viable cells (EC50 pM), Donor 2 [3]: 167 pM | Percent Inhibition (IC50 nM) of CCL1-dependent chemotaxis of HUT78 cells [4]: 13.6 nM

B11: Antibody 6.1 IgG1 (VH: S67R_A114S_I134P, VL: F71L)_huIgG1z mAb (antibody, V domains shown)
VH: QVQLVESGGGVVQPGRSLRLSCEASGFTFSSYVMHWVRQAPGKGLEWVSVISYDGSRQYYTDSVKGRFTISRDNSKNTLNLQMNSLRAEDTAVYYCVRGRLATSPLFDYWGQGTLVTVSS
VL: B7 VL with V3L, A25S, A26S, H31Y, K44R, S48P, F60L, V90I, T96S, L97I
ADCC, Percent Non-Viable cells (EC50 pM), Donor 4 [8]: 4.52 pM | ADCC, Percent Non-Viable cells (EC50 pM), Donor 5 [8]: 1.05 pM | ADCC, Percent Non-Viable cells (EC50 pM), Donor 6 [8]: 3.62 pM

B12: Antibody 6.0 IgG1 (antibody, V domains shown)
VH: B11 VH with R57S, S104A, P105I
VL: B7 VL with V3L, A25S, A26S, H31Y, K44R, S48P, V90I, T96S, L97I
ADCC, Percent Non-Viable cells (EC50 pM), Donor 1 [3]: 2 pM | ADCC, Percent Non-Viable cells (EC50 pM), Donor 2 [3]: 37.4 pM | Percent Inhibition (IC50 nM) of CCL1-dependent chemotaxis of HUT78 cells [4]: 20.1 nM

B13: Antibody 5.4 IgG1 (VH: G40A, VL: S57Y_E58L_V67T_F103V)_huIgG1z mAb (antibody, V domains shown)
VH: B8 VH with G33A, T105F
VL: B7 VL with I2T, A25S, A26S, S48P, E55L, V56T, T96S, K98R
ADCC, Percent Non-Viable cells (EC50 pM), Donor 4 [8]: 3.43 pM | ADCC, Percent Non-Viable cells (EC50 pM), Donor 5 [8]: 0.889 pM | ADCC, Percent Non-Viable cells (EC50 pM), Donor 6 [8]: 4.62 pM

B14: Antibody 5.2 IgG1 (VH: G40P_F134T, VL: S57Y_E58L_V67R_F103V)_huIgG1z mAb (antibody, V domains shown)
VH: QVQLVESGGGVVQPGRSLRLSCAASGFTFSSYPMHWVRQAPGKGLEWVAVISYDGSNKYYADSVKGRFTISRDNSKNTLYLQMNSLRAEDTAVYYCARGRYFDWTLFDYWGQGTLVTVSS
VL: B7 VL with I2T, A25S, A26S, S48P, E55L, V56R, T96S, K98R
ADCC, Percent Non-Viable cells (EC50 pM), Donor 4 [8]: 6.2 pM | ADCC, Percent Non-Viable cells (EC50 pM), Donor 5 [8]: 1.01 pM | ADCC, Percent Non-Viable cells (EC50 pM), Donor 6 [8]: 6.11 pM

B15: Antibody 5.3 IgG1 (VH: A71S_D72R, VL: S57Y_E58L_V67S_F103V)_huIgG1z mAb (antibody, V domains shown)
VH: B8 VH with A61S, D62R, T105F
VL: B7 VL with I2T, A25S, A26S, S48P, E55L, V56S, T96S, K98R
ADCC, Percent Non-Viable cells (EC50 pM), Donor 4 [8]: 3.34 pM | ADCC, Percent Non-Viable cells (EC50 pM), Donor 5 [8]: 0.642 pM | ADCC, Percent Non-Viable cells (EC50 pM), Donor 6 [8]: 3.48 pM

B16: Antibody 6.2 IgG1 (VH: S67R_Q68A_L135K_F136L, VL: S109T_I110L)_huIgG1z mAb (antibody, V domains shown)
VH: B11 VH with Q58A, S104A, P105I, L106K, F107L
VL: B7 VL with V3L, A25S, A26S, H31Y, K44R, S48P, V90I
ADCC, Percent Non-Viable cells (EC50 pM), Donor 4 [8]: 4.12 pM | ADCC, Percent Non-Viable cells (EC50 pM), Donor 5 [8]: 2.04 pM | ADCC, Percent Non-Viable cells (EC50 pM), Donor 6 [8]: 5.14 pM
